Test results reported in PMC6494882, “Inhibition of MYC by the SMARCB1 tumor suppressor”.

Molecular target: MAX:MAX (UniProt P61244 1-160)
Test: EMSA; no SNF5; 15 mM Tris-HCl pH 7.9, 15% glycerol, 100 mM KCl, 0.15 mM EDTA, 0.075% NP-40, 7.5 mM 2-mercaptoethanol, 40 ng poly(dI-dC), 375 ng/ul BSA, 25 fmol probe, 10-15 ul, 30 min, room temperature; SUMO-BAF155(533-580) added to equalize total protein in SNF5 experiments
Settings: protein: recombinant; tags: 6xHis; chain copies: 2; label: 3'-biotin

MAX:MAX, sequence (P61244 whole entry): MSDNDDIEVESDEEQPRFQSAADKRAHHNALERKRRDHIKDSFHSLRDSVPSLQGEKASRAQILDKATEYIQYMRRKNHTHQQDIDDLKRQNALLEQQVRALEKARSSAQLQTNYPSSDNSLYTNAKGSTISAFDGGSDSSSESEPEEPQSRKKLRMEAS

B1: wild-type E-box probe (dsDNA)
DNA 1: GCTCAGGGACCACGTGGTCGGGGATC
DNA 2: GATCCCCGACCACGTGGTCCCTGAGC
Q: Does B1 bind?
A: binds
